The source of these data is publication PMC9022993, “Distinct phosphorylation signals drive acceptor versus free ubiquitin chain targeting by parkin” (Biochemical Journal, 2022).

For experiment [1], the target named is T1, human parkin, full-length, affinity tag cleaved (human, UniProt O60260 1-465).
T1 construct: human parkin (RBR E3 ubiquitin ligase), full-length; the MST used the uncleaved His6-Smt3 form; also called unphosphorylated parkin; source: E. coli BL21(DE3), purified (Ni-NTA HisTrap FF, Ulp1 cleavage, gel filtration); not shown: His6, N-terminal, cleaved; Smt3, N-terminal, cleaved
T1 sequence (O60260 whole entry): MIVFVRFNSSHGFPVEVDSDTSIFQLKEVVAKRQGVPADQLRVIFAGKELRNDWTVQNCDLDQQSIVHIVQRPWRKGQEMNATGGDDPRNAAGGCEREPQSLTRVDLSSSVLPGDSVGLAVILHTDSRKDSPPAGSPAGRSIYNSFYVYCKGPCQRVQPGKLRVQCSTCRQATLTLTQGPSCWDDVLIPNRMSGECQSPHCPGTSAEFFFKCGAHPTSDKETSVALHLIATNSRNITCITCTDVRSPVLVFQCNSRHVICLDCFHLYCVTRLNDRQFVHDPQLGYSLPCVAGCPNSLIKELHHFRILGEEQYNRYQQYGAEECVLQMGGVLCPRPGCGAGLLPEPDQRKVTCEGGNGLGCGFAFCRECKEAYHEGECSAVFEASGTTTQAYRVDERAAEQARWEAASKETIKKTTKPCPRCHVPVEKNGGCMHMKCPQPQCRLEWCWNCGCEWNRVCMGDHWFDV
The experiment can be described thus: MST + ITC; parkin with CISD1 (Supplementary Fig. S2); the text names 'either MST or ITC' and does not tell which was used for CISD1. The following applies: both partners purified.

Experiment [2] addresses T2, His6-Smt3-Parkin (full-length human parkin, tag kept, labelled with RED-tris-NTA) (human, UniProt O60260 1-465, RED-tris-NTA dye bound to the His tag (Monolith His-Tag Labelling Kit RED-tris-NTA 2nd Generation)).
T2 construct: human parkin, full-length; Used for MST only; source: E. coli BL21(DE3), purified; not shown: His6, N-terminal, kept; Smt3, N-terminal, kept
The experiment can be described thus: MST; His6-Smt3-Parkin constructs labelled with RED-tris-NTA; unlabelled partner in up to 16 1:1 serial dilutions (from 50 µM for Miro1^181-579); 25°C; PBS-T (PBS 1x, 0.05% Tween 20); 1:1 fit. The following applies: both partners purified.

T2 sequence (O60260 whole entry): as above

B1: human CISD1 (residues 32-108), entire extramembranous portion (domain or fragment, UniProt Q9NZ45 32-108, looked up)
chain: KRFYVKDHRNKAMINLHIQKDNPKIVHAFDMEDLGDKAVYCRCWRSKKFPFCDGAHTKHNEETGDNVGPLIIKKKET
notes: human CISD1 (MitoNEET) lacking only its transmembrane domain, residues 32-108; also called MitoNEET; source: E. coli BL21(DE3) with FeCl3 in the media, purified (Ni-NTA, TEV cleavage, gel filtration); not shown: His6, N-terminal, cleaved
What is called Kd is the free concentration of one partner at which half of the binding sites on the other are occupied at equilibrium, for simple one-to-one binding. In the case of B1, in experiment [1], the Kd was above 100 µM.

B2: Miro1^181-579 (near full-length, soluble construct of Miro1 that lacks only its GTPase1 domain) (domain or fragment, human, UniProt Q8IXI2 181-579, looked up)
chain: MKPACIKALTRIFKISDQDNDGTLNDAELNFFQRICFNTPLAPQALEDVKNVVRKHISDGVADSGLTLKGFLFLHTLFIQRGRHETTWTVLRRFGYDDDLDLTPEYLFPLLKIPPDCTTELNHHAYLFLQSTFDKHDLDRDCALSPDELKDLFKVFPYIPWGPDVNNTVCTNERGWITYQGFLSQWTLTTYLDVQRCLEYLGYLGYSILTEQESQASAVTVTRDKKIDLQKKQTQRNVFRCNVIGVKNCGKSGVLQALLGRNLMRQKKIREDHKSYYAINTVYVYGQEKYLLLHDISESEFLTEAEIICDVVCLVYDVSNPKSFEYCARIFKQHFMDSRIPCLIVAAKSDLHEVKQEYSISPTDFCRKHKMPPPQAFTCNTADAPSKDIFVKLTTMAMY
notes: source: E. coli BL21(DE3); purified as previously described by Kumar et al. [11]
Turning to B2, the Kd in experiment [2] is above 100 µM.
